# Measured values reported in patent US6645504B1, “Bystander suppression of type I diabetes by oral administration of glucagon” (AutoImmune Inc., priority 1987, dated 2003).
# B1: MBP: Guinea pig myelin basic protein purified from brain tissue (protein, UniProt P25188 1-167, looked up)
# Myelin basic protein: ASQKRPSQRHGSKYLATASTMDHARHGFLPRHRDTGILDSIGRFFGSDRAAPKRGSGKDSHHAARTTHYGSLPQKSQRSQDENPVVHFFKNIVTPRTPPPSQGKGRGLSLSRFSWGAEGQKPGFGYGGRADYKSKGFKGAHDAQGTLSKIFKLGGRDSRSGSPMARR
# Test system: MBP specific T-cells
# Test: In vitro suppression of proliferative responses by supernatants
# Assay type: cell-based, Lewis rats
# Conditions: supernatants of splenocytes from fed animals stimulated in vitro with MBP; FIG. 1
# Procedure: Induction Of Oral Tolerance. Rats were fed 1 mg of MBP dissolved in 1 ml PBS, or PBS alone, by gastric intubation using a 18-gauge stainless steel animal feeding needle (Thomas Scientific, Swedesboro, N.J.). Animals were fed five times at intervals of 2-3 days with the last feeding two days before immunization. The purpose of this was to induce tolerance.
# In Vitro Suppression Of Proliferative Responses By Supernatants. Spleen cells were removed 7-14 days after the last feeding and a single cell suspension prepared by pressing the spleens through a stainless steel mesh. For preparation of supernatants, spleen cells at a concentration of 5×10^6 cells/ml were stimulated in vitro with MBP (50 μg/ml) in 10 ml of proliferation medium. Proliferation medium consisted of RPMI 1640 (GIBCO, Grand Island, N.Y.) supplemented with 2×10^−5 M 2-mercaptoethanol, 1% sodium pyruvate, 1% penicillin and streptomycin, 1% glutamine, 1% HEPES buffer, 1% nonessential amino acids and 1% autologous serum. […] Cultures were harvested onto fiberglass filters using a multiharvester and counted using standard liquid scintillation techniques.
# Purification Of T-Cell Subsets. […] The quantity of magnetic beads used was calculated as being 10 times the estimated target cell population. […]
molecule,measurement,value
B1,proliferation of the MBP line after addition of supernatants,reduction in the proliferation of the MBP line
